Patent US20160168210A1, “DERIVATIVES OF COLLAGEN-BINDING HAIRPIN PEPTIDES” (NATIONAL RESEARCH COUNCIL OF CANADA, priority 2012, published 2016)
“Also recorded” adds a separate entry of the source. Where no end group is shown, it is not given here.

Columns and labels:
rat-tail collagen type I [1] = target: rat-tail collagen type I (Rattus norvegicus, UniProt P02454+P02466); test: Collagen binding/responsiveness of peptides by proton NMR and H-15N HSQC spectroscopy; parameters: rat-tail collagen type I (at 4 mg/ml in 0.02 N acetic acid); purchased BD Bioscience; host or cells: rat tail (tissue-derived); settings: for response to / binding of collagen (NMR spectral perturbations): peptide free in solution vs in the presence of collagen; for NMR perturbations after collagen gelation (polymerization); reversibility of collagen binding: before vs after collagen gelation
Procedure: Rat collagen hydrogels were prepared using rat-tail collagen type I (at 4 mg/ml in 0.02 N acetic acid) from BD Bioscience. A volume of 200 μL of the concentrated collagen solution was mixed with an equal volume of a buffer solution that was 400 mM in Tris-HCl and 400 mM in NaCl with a pH of 7.6 and with 50 μL of deuterated water (D2O). The sample mixture was transferred to an NMR tube followed by gentle mixing under agitation using a Thermolyne™ Max Mix-II apparatus. The NMR tube containing the collagen solution was placed within the RF probe housed in a 500 MHz super-conducting magnet (Bruker Avance-500 NMR spectrometer). The probe and sample bulk temperature was kept at 277 K for 3 hours and then elevated to 310 K at a rate of 1 degree/10 min to enable fibril alignment during a slow process of collagen gelation under the influence of the magnetic field (Ma 2008). The degree of fibril alignment of the collagen hydrogels was determined by use of deuterium NMR spectroscopy of the added D2O as described (Ma 2008). […]
Randomly-deposited collagen (hydrogel) matrix was prepared following the same procedure as above for partially aligned hydrogels, except that the RF probe and the NMR tube (or test tubes) containing the collagen solution were placed outside the magnetic field. Peptides containing collagen-binding hairpins were introduced into the hydrogels in two ways, the first with the collagen stock solution diluted (50:50 in volume ratio) by the buffer of 400 mM in Tris-HCl and 400 mM in NaCl at pH 7.6 containing the peptides of interest (i.e. for FIGS. 1A & 1D), which gelates in the presence of the added peptide. Alternatively, peptides in an appropriate buffer were introduced to the top of the hydrogel matrix (i.e. for FIGS. 1B & 1C) preformed in the NMR tube (or test tube) following the procedures described above. The behavior of the peptides in the hydrogels was followed by use of NMR H-^15N HSQC spectra for ^15N-labelled peptides (FIG. 1) and/or by use of one-dimensional proton NMR spectroscopy (FIG. 2).
Deuterium NMR spectroscopy studies of collagen responsiveness (and/or binding) for each peptide were carried out using a volume of (400-X) μL of a peptide dissolved in pure water mixed with 50 μL of a 10×PBS (phosphate-buffered saline) supplemented by sodium phosphate to a final concentration of 50 mM, with 50 μL of deuterated water (D2O) to form the reference sample (where X=0), or the peptide-collagen complex with X μL of rat-tail collagen type I (at 3.6 to 4 mg/ml in 0.02 N acetic acid from BD Bioscience) adjusted to achieve the desired final concentration of collagen. The pH value of the reference peptide samples was adjusted to match the pH of the final peptide-collagen complex in order to facilitate NMR spectral comparison. The peptide-collagen solutions were also subjected to gelation under magnetic field guidance followed by the measurement of fibril alignment (Ma 2008) as a semi-quantitative indication of peptide-collagen binding. Deuterium coupling constants measuring the degree of collagen fibril alignment were reduced by more than 1.0 Hz for MH2-wZIP4, by less than 0.5 Hz for MH2-wZIP6 and MH2-wZIP5, which parallel those observed for trpzip4, trpzip6, trpzip5 and the gb1 peptide (see Example 4). As a comparison, a solution of rat collagen at a concentration of 1.8 mg/ml in 200 mM Tris-Cl/200 mM NaCl at pH 7.6 formed a partially-aligned hydrogel with a deuterium coupling constant (Ma, 2008) of 2.5 Hz, while a solution of rat collagen at a concentration of 3 mg/ml in PBS (137 mM NaCl/2.68 mM KCl/10.1 mM Na2HPO4/1.76 mM KH2PO4) supplemented with Na2HPO4 to achieve a final concentration of 50 mM at pH 7.4 formed a partially-aligned hydrogel with a deuterium coupling constant of 4.8 Hz. A solution of human collagen at a concentration of 2.23 mg/ml in PBS supplemented with Na2HPO4 with a final concentration of 50 mM at pH 7.4 formed a partially-aligned hydrogel with a deuterium coupling constant of 1.3 Hz.

[2] = system: abdominal vena cava injured by FeCl3; settings: I.V. 30 minutes after FeCl3; about 1/4 of the highest FL4247 dose
Description: The application of ferric chloride on venous and arterial vessels was therefore the method used to produce the inflamed vasculature in the animal model. The carotid artery (arterial model) and the abdominal vena cava (venous model) were the chosen vessels for the imaging experiments with injured blood vessels undergong thrombosis.
The FeCl3 rat venous model of thrombosis was generated as described (Wang 2005) with some modifications. Briefly, rats were anesthetized with a 2.5% isoflurane/oxygen mixture and placed on a heat source (35-37° C.). The vena cava was then exposed via a midline incision and the region between the renal and iliolumbar veins was isolated. One minute after drug administration, a piece of filter paper (Gel Blot Paper, GB003, Whatman, Piscataway, N.J., USA; 7 mm diameter) saturated with 10% FeCl3 (EMD Chemicals Inc., Gibbstown, N.J., USA) was placed on the exposed surface of the vena cava and incubated for 3.5 minutes. During the application of FeCl3, the abdominal region was covered with aluminum foil. At the end of the incubation period, the filter paper was removed and the exposed viscera covered with a saline-soaked gauze.
In these imaging experiments, there were also a 30-minute waiting time after introduction of FeCl3 to the exposed vena cava to ensure the development of substantial vascular injury and the deposition of a thrombus.

rat-tail collagen type I [3] = target: T1, rat-tail collagen type I (rat, UniProt P02454 152-1207; P02466 86-1125); test: proton NMR, free against with collagen
T1 construct: also called type-I collagen; unpolymerized collagen
T1 sequence (P02454 152-1207 limits assumed, chain 1 of 2): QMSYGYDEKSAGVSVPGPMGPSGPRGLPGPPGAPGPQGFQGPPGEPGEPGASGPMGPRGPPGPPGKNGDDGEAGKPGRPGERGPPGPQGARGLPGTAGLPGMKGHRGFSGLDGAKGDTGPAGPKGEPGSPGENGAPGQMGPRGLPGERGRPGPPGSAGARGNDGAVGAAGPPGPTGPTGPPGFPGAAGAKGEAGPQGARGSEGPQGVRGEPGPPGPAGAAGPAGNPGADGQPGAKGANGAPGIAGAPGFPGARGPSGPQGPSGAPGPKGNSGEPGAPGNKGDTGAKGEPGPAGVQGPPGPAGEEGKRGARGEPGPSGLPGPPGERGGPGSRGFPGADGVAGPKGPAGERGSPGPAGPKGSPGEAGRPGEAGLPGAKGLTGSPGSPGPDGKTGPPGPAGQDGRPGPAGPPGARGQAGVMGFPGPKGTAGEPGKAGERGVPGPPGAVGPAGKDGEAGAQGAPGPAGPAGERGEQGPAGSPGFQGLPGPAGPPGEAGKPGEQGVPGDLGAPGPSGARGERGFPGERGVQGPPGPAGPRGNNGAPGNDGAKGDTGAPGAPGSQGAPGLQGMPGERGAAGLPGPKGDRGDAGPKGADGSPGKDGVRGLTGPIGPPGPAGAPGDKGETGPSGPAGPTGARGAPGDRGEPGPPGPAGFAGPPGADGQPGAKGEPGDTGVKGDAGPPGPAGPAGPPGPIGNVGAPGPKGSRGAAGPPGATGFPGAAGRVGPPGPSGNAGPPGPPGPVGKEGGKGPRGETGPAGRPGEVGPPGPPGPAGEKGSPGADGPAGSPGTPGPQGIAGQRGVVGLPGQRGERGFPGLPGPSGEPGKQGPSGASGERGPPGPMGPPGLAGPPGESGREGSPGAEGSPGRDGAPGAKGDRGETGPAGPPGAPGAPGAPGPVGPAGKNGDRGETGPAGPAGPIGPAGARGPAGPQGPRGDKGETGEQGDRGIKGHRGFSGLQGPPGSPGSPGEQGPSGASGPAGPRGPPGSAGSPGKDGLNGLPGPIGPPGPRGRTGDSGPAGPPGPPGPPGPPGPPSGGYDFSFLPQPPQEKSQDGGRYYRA
T1 sequence (P02466 86-1125 limits assumed, chain 2 of 2): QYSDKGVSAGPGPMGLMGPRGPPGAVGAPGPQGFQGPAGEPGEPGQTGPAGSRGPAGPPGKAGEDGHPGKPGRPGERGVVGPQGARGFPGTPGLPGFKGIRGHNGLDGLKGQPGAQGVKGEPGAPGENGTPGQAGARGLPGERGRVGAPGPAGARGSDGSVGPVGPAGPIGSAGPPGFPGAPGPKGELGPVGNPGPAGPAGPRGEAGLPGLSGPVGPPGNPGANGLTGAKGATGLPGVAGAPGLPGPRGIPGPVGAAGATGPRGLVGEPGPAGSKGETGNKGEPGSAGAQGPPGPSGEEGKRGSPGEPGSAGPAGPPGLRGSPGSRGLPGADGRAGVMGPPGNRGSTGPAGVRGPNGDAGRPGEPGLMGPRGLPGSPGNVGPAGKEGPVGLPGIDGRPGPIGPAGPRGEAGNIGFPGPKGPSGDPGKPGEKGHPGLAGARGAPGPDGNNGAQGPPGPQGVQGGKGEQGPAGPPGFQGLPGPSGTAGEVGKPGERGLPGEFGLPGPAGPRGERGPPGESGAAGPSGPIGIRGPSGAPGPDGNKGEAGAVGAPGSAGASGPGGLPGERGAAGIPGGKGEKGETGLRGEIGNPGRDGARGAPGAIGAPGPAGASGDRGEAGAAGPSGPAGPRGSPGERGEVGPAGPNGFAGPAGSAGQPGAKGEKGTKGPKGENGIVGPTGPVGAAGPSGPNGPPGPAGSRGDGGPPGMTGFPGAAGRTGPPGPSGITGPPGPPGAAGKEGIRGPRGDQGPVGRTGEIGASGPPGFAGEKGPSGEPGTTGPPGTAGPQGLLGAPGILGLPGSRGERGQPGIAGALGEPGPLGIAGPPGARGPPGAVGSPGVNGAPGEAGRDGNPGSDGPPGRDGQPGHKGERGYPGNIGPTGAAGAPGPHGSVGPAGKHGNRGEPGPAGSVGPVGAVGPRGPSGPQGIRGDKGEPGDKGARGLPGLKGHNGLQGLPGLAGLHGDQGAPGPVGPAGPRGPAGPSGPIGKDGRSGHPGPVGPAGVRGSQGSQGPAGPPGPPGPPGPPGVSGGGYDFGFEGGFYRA

Sequence of rat-tail collagen type I (Rattus norvegicus, UniProt P02454+P02466) (P02454 152-1207 limits assumed): as the sequence (P02454 152-1207 limits assumed, chain 1 of 2) above
Sequence of rat-tail collagen type I (Rattus norvegicus, UniProt P02454+P02466) (P02466 86-1125 limits assumed): as the sequence (P02466 86-1125 limits assumed, chain 2 of 2) above

| Molecule | response to / binding of collagen (NMR spectral perturbations) (rat-tail collagen type I [1]) | also measured |
| --- | --- | --- |
| SWTYEGNKWTWK (SWTYEGNKWTWK-NH2) [Y4-trpzip1, reference compound] | retain the collagne-binding capacity |  |
| KTWNPATGKWTE (HP7 - does not bind collagen) [reference compound] | does not respond to the addition of collagen |  |
| TWRWNGSTAWTWS (CBLH peptide - pp-D7EUT8) | some proton NMR perturbations are observed |  |
| IRFTDGGSWTWEGNKWTWKGGDFEEIPEEYLQ (MH2-wZIP1GG - molecule of Formula (I)) | responds similarly to collagen binding |  |
| SWTVENGKVTWK (W2W11-trpzip2 - does not bind collagen) [reference compound] | loses the collagen-binding capacity |  |
| acetyl-STWTWNGSAWTWNEGGK (Ac-STWTWNGSAWTWNEGGK) | bind to type-I collagen | NMR perturbations after collagen gelation (polymerization); reversibility of collagen binding (rat-tail collagen type I [1]): essentially irreversible |
| GEWTWDDA (MH2-wZIP4-F2 - does not bind collagen) | lack of binding with collagen |  |
| TWTWNGSAWTWN (CBLH peptide - v4-gp120) [reference compound] | respond to collagen |  |
| acetyl-STWTWNGTNWTRNDGGK (Ac-STWTWNGTNWTRNDGGK) | bind to type-I collagen | NMR perturbations after collagen gelation (polymerization); reversibility of collagen binding (rat-tail collagen type I [1]): certain degree of reversibility |
| GEWVWDDATKTWHWTE (GEWVWDDATKTWHWTE-NH2) [trpzip8, reference compound] | CBLH peptides |  |
| SWTWENGKWTWK (SWTWENGKWTWK-NH2) [trpzip2, reference compound] | collagen-binding linear hairpin (CBLH) peptide |  |
| STWTWNGTNWTRNDGGC-Fluor750 (not fully specified (C-terminus); printed as STWTWNGTNWTRNDGGC-Fluor750; also: HiLyte Fluor750 conjugate) [FL4447] |  | fluorescence at the injured vena cava (whole-body and post-mortem imaging) [2]: somewhat reduced level of local fluorescence as compared to FL4247/FL4312 |
| KEWTWNPATGKWTRTE (KEWTWNPATGKWTRTE-NH2) [CBLH4] | almost identical collagen-binding characteristics | NMR perturbations after collagen gelation (polymerization); reversibility of collagen binding (rat-tail collagen type I [1]): certain degree of reversibility |
| GEWTWDDATKTWTWTEGDFEEIPEEYL (MH2-wZIP4-F3 - molecule of Formula (I)) | responds fully to collagen |  |
| SWTYEGNKYTWK (SWTYEGNKYTWK-NH2) [Y4Y9-trpzip1, reference compound] | retain the collagne-binding capacity |  |
| KKWTWNPATGKWTWQE (KKWTWNPATGKWTWQE-NH2) [HP5W4, reference compound] | CBLH peptides |  |

| Molecule | response to / binding of collagen (NMR spectral perturbations) (rat-tail collagen type I [1]) | also measured |
| --- | --- | --- |
| IRFTDGEWTWDDA (MH2-wZIP4-F1 - does not bind collagen) | does not respond to collagen binding |  |
| KEWTYNPATGKWTWTE [CBLH3] | almost identical collagen-binding characteristics | NMR perturbations after collagen gelation (polymerization); reversibility of collagen binding (rat-tail collagen type I [1]): certain degree of reversibility |
| SWTWEGNKWTWK (SWTWEGNKWTWK-NH2) [trpzip1, reference compound] | respond to collagen |  |
| MH2-wZIP6: bivalent thrombin inhibitor containing the trpzip6 sequence (WO/2012/142696) (GEWTWDDATKTWTVTE; also: bivalent thrombin inhibitor, other parts, small tags and cut ends not in chain) | varying degrees of entrapment | NMR perturbations after collagen gelation (polymerization); reversibility of collagen binding (rat-tail collagen type I [1]): reduced degree of proton NMR signal perturbations |
| MH2-wZIP5: bivalent thrombin inhibitor containing the trpzip5 sequence (WO/2012/142696) (GEWTYDDATKTFTWTE; also: bivalent thrombin inhibitor, other parts, small tags and cut ends not in chain) | varying degrees of entrapment | NMR perturbations after collagen gelation (polymerization); reversibility of collagen binding (rat-tail collagen type I [1]): reduced degree of proton NMR signal perturbations; also recorded: more pronounced loss of resonance perturbations as compared to MH2-wZIP6 |
| GEWTWNPATGKWTRTE (GEWTWNPATGKWTRTE-NH2) [CBLH2] | almost identical collagen-binding characteristics | NMR perturbations after collagen gelation (polymerization); reversibility of collagen binding (rat-tail collagen type I [1]): certain degree of reversibility |
| GEWTYNPATGKWTWTE (GEWTYNPATGKWTWTE-NH2) [CBLH1] | almost identical collagen-binding characteristics | NMR perturbations after collagen gelation (polymerization); reversibility of collagen binding (rat-tail collagen type I [1]): certain degree of reversibility |
| SWTYENGKYTWK (SWTYENGKYTWK-NH2) [WYYW-trpzip2, reference compound] | retains a significant capacity for binding collagen |  |
| TWTWNGTNWTRN (CBLH peptide - v4-gp160) | responsive to the presence of collagen |  |
| IRFTDGEWTWDDA (also called P4233) [MH2-wZIP4-F1] |  | binding result (rat-tail collagen type I [3]): no binding |
| GEWTWDDA (also called P4236) [MH2-wZIP4-F2] |  | binding result (rat-tail collagen type I [3]): no binding |
| KTWNPATGKWTE [HP7] |  | binding result (rat-tail collagen type I [3]): no binding |
| SWTVENGKVTWK [W2W11-trpzip2] |  | binding result (rat-tail collagen type I [3]): no binding |
| GEWTYDDATKTFTVTE-NH2 (also called gb1 peptide; gb1-NH2) [gb1] |  | binding result (rat-tail collagen type I [3]): no binding |
| IRFTDGEWTWDDATKTWTWTE-GGS-VHpro10 (protein, WZ4-GGS-VHpro10 - molecule of Formula (I), trpzip4-VH conjugate, VHpro10 is a prothrombin-specific antibody VHH fragment) IRFTDGEWTWDDATKTWTWTEGGSDVQLQASGGGLVQAGGSLRLTCAASGRTFDRYGWFRQAPGKEREFVASIGTRLHYADSVKGRFTISRDNAKSTAFLEMNSLKPEDTAVYYCAAAESTRNWYYKMSNDYDYWGQGTQVTVSSLEHHHHHH |  | NMR perturbations / release after collagen degradation by a collagenase (rat-tail collagen type I [1]; collagenase treatment): gradually came into view while the collagen gel dissembles in the presence of a collagenase |
